# In patent US20110182926A1, “[…]” (priority 2008, published 2011):
# B1: hTERT position 540, 9-mer, w.t. (ILAKFLHWL) (peptide)
# peptide: ILAKFLHWL
# notes: Fragment of hTERT (SwissProt O14746, printed); The range is worked out from the printed position and length
# B2: hTERT 540.V9 analog (peptide)
# peptide: ILAKFLHWV
# notes: type V9
# B3: hTERT position 540, 10-mer, w.t. (ILAKFLHWLM) (peptide)
# peptide: ILAKFLHWLM
# notes: Fragment of hTERT (SwissProt O14746, printed)
# B4: hTERT position 544, 10-mer, w.t. (FLHWLMSVYV) (peptide)
# peptide: FLHWLMSVYV
# notes: as for B1
# B5: hTERT position 30, 9-mer, w.t. (RLGPQGWRL) (peptide)
# peptide: RLGPQGWRL
# notes: as for B1
# B6: hTERT position 986, 9-mer, w.t. (FLDLQVNSL) (peptide)
# peptide: FLDLQVNSL
# notes: as for B1
# B7: CEA.691 (IMIGVLVGV) (peptide)
# peptide: IMIGVLVGV
# notes: Wild type CEA 9-mer
# B8: hTERT.934, 9-mer, w.t. (LLDTRTLEV) (peptide)
# peptide: LLDTRTLEV
# notes: as for B1
# B9: hTERT position 688, 10-mer, w.t. (RAWRTFVLRV) (peptide)
# peptide: RAWRTFVLRV
# notes: as for B1
# B10: CEA.307V10 (GLNRTTVTTV) (peptide)
# peptide: GLNRTTVTTV
# notes: Anchor-modified analog of a CEA peptide
# B11: CEA.589V10 (VLYGPDTPIV) (peptide)
# peptide: VLYGPDTPIV
# notes: as for B10
# B12: CEA.690L2 (GLMIGVLVGV) (peptide)
# peptide: GLMIGVLVGV
# notes: Anchor-modified analog of a CEA peptide; leucine at position 2
# B13: CEA.682V10 (GLSAGATVGV) (peptide)
# peptide: GLSAGATVGV
# notes: as for B10
# B14: hTERT position 865, 9-mer, w.t. (RLVDDFLLV) (peptide)
# peptide: RLVDDFLLV
# notes: as for B1
# B15: hTERT 865.F1 analog (peptide)
# peptide: FLVDDFLLV
# notes: type F1
# What was measured:
# HHD mice = assay: Immunogenicity of additional CEA peptides in HHD mice (Example 9, ICS for IFNγ); type: in vivo; details: for immunogenicity (immune response against the natural target epitope): 6 HHD mice, 100 μg peptide s.c., two injections, ICS IFNγ three weeks later; for immunogenicity (immune response against the natural target epitope) / fold more immunogenic than the natural peptide: FIG. 7; for fold more immunogenic than the natural peptide: HHD mice, ICS IFNγ
# HLA-A*0201 [1] = target: T1, HLA-A*0201 (Homo sapiens, UniProt P04439, D140Y/D185E/D98H/E176V/E277Q/G131W/G231S/I119V/I121R/I166T/I218V/L300P/L318F/N151K/N90K/P208A/P217A/Q86G/Q94H/R138H/R169H/T345S); assay: HLA-A*0201/peptide complex stability on T2 cells over time (FACS); type: binding; details: 50 μM peptide, 0-8 hours, FIG. 4
# Method: To assess the HLA-A*0201/peptide complex stability, T2 cells (10^6/mL) were incubated overnight with 50 μM of each peptide in serum-free RPMI 1640 supplemented with 100 ng/mL human β2m at 37° C. Cells were then washed 4 times to remove free peptides, incubated for 1 hour with 10 ng/mL Brefeldin A (Sigma-Aldrich) to block cell surface expression of newly synthesized HLA-A*0201 molecules, washed, and incubated at 37° C. for 0, 2, 4, 6, or 8 hours. Subsequently, cells were stained with anti-HLA-A2.1 mAb BB7.2. For each time point, peptide-induced HLA-A*0201 expression was calculated as mean fluorescence value of peptide incubated T2 cells/mean fluorescence value T2 cells in the absence of the peptide. Dissociation complex 50 (DC50) was defined as the time required for the loss of 50% of the HLA-A*0201/peptide complexes stabilized at t=0.
# Binding stability of the peptide-MHC complex was also evaluated over time. The CAP-1 peptide was used as positive control.
# HLA-A*0201 [2] = target: T1, HLA-A*0201; assay: In vitro cellular binding assay of CEA peptides on TAP-deficient T2 cells (FACS); details: 50 μM peptide, 18 hours at 37° C., FIG. 3
# Method: To determine the binding ability of EI Suite-selected wild type peptides and analogs, an in vitro cellular binding assay was performed using the TAP-deficient cell line T2. T2 cells are HLA-A*0201 positive, MHC class II negative and TAP deficient, meaning that they lack a functional transporter associated with antigen presentation, so that they accumulate empty unstable class I molecules.
# T2 cells were incubated with 50 μM peptide in serum-free RPMI 1640 supplemented with 5 μg/mL human β2m (Fluka) for 18 hours at 37° C. HLA-A*0201 expression was then measured by flow cytometry using the anti-HLA-A2.1 monoclonal antibody (mAb) BB7.2 followed by incubation with fluorescein isothiocyanate (FITC)-conjugated F(ab′)2 goat antimouse Ig (Biosource). The results are expressed as fluorescence index (FI) defined as a ratio (median channel of fluorescence) between the sample and a control without any peptide. An increase over the control of at least […] (FI>2) was arbitrarily chosen as the cutoff point.
# HLA-A*0201 [3] = target: T1, HLA-A*0201; assay: iTopia Epitope Discovery System binding affinity; details: hTERT analogs; FIG. 8
# Method: Candidate epitopes and analogs are analyzed for the ability to bind to HLA-A*0201in-vitro using iTopia™ Epitope Discovery System (http://www.immunomics.com). This assay provides a method to determine the binding affinity and stability of a test peptide to any of several Class I HLA molecules, using fluorescent-labeled antibody that specifically recognizes HLA only when peptide is bound in the MHC-I groove.
# Candidate epitopes and analogs are analyzed for the ability to bind to HLA-A*0201 in-vitro using iTopia™ Epitope Discovery System (http://www.immunomics.com). This assay provides a method to determine the binding affinity and stability of a test peptide to any of several Class I HLA molecules, using fluorescent-labeled antibody that specifically recognizes HLA only when peptide is bound in the MHC-I groove.
# [4] = target: T2, HLA-A*0201 (iTopia Epitope Discovery System) (human); assay: iTopia Epitope Discovery System binding assay
# T2 construct: Commercial in vitro assay; also called Class I HLA molecule
# Description: This assay provides a method to determine the binding affinity and stability of a test peptide to any of several Class I HLA molecules, using fluorescent-labeled antibody that specifically recognizes HLA only when peptide is bound in the MHC-I groove.
# HLA-A*0201 on T2 cells [5] = target: T3, HLA-A*0201 on T2 cells (human); assay: assay not named there (T2 cell binding per paragraph 90)
# T3 construct: Empty class I molecule on T2 cells; also called HLA-A2.1; A2.1
# Method: T2 cells were incubated with 50 μM peptide in serum-free RPMI 1640 supplemented with 5 μg/mL human β2m (Fluka) for 18 hours at 37° C. […] The results are expressed as fluorescence index (FI) defined as a ratio (median channel of fluorescence) between the sample and a control without any peptide. An increase over the control of at least 65% (FI>2) was arbitrarily chosen as the cutoff point.
# HLA-A*0201 on T2 cells [6] = target: T3, HLA-A*0201 on T2 cells; assay: T2 cells, 50 uM peptide, surface HLA-A2 by FACS with BB7.2
molecule,measurement,setting,value
RLTVTTITV (Anchor-modified analog) [CEA310L2],immunogenicity (immune response against the natural target epitope),HHD mice,extremely powerful in eliciting a cross reactive immune response
same,fold more immunogenic than the natural peptide,HHD mice,123 fold
GLSAGATVGV (Anchor-modified analog) [682V10],stability of peptide-MHC complex compared to wild-type counterpart,HLA-A*0201 [1],improved stability
same,binding to HLA-A*0201 compared to wild-type counterpart,HLA-A*0201 [2],marked increase of binding
"540.V10: hTERT position 540 10-mer V10 analog of ILAKFLHWLM, SEQ ID NO 17 (ILAKFLHWLV)",binding affinity to HLA-A*0201 compared to the corresponding wild type peptide,HLA-A*0201 [3],increase in binding affinity
ATVGIMIGV [CEA687],immunogenicity (immune response against the natural target epitope),HHD mice,significantly immunogenic
same,mice responding to the vaccination,HHD mice; groups of 6 HHD mice,4 out of 6
IMIGVLVGV [CEA691],immunogenicity (immune response against the natural target epitope),HHD mice,immunogenic
GLMIGVLVGV (Anchor-modified analog) [690L2],binding to HLA-A*0201 compared to wild-type counterpart,HLA-A*0201 [2],marked increase of binding
"540.V9: hTERT position 540 9-mer V9 analog of ILAKFLHWL, SEQ ID NO 15 (ILAKFLHWV)",binding affinity to HLA-A*0201 compared to the corresponding wild type peptide,HLA-A*0201 [3],increase in binding affinity
ALVGIMIGV [CEA687L2],fold more immunogenic than the natural peptide,HHD mice,about 3.4 fold
same,mice responded to the treatment,HHD mice; groups of 6 HHD mice,100%
VLYGPDDPTV (Anchor-modified analog) [411V10],stability of peptide-MHC complex compared to wild-type counterpart,HLA-A*0201 [1],improved stability
same,binding to HLA-A*0201 compared to wild-type counterpart,HLA-A*0201 [2],marked increase of binding
GLNRTTVTTV (Anchor-modified analog) [307V10],binding to HLA-A*0201 compared to wild-type counterpart,HLA-A*0201 [2],marked increase of binding
"688.L2: hTERT position 688 10-mer L2 analog of RAWRTFVLRV, SEQ ID NO 20 (RLWRTFVLRV)",binding affinity to HLA-A*0201 compared to the corresponding wild type peptide,HLA-A*0201 [3],increase in binding affinity
B1,binding affinity (% of positive control),[4],30 % of the positive control
B2,binding result,[4],binds
B3,binding affinity (% of positive control),[4],30 % of the positive control
B4,binding affinity (% of positive control),[4],30 % of the positive control
B5,binding affinity (% of positive control),[4],30 % of the positive control
B6,binding affinity (% of positive control),[4],30 % of the positive control
B7,binding result,HLA-A*0201 on T2 cells [5],binds
B8,binding affinity (% of positive control),[4],30 % of the positive control
B9,binding affinity (% of positive control),[4],30 % of the positive control
B10,binding result,HLA-A*0201 on T2 cells [6],binds
B11,binding result,HLA-A*0201 on T2 cells [6],binds
B12,binding result,HLA-A*0201 on T2 cells [6],binds
B13,binding result,HLA-A*0201 on T2 cells [6],binds
B14,binding affinity (% of positive control),[4],30 % of the positive control
B15,binding result,[4],binds
